Measured values as given in the supplement of paper PMC9170038.

Tested on: K4 kissing-loop RNA reporter
Assay: apparent KD of K4 kissing-loop reporter; higher = weaker reporter binding
Conditions: Eterna round: R107
Description: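 RNA-MaP round R107: designed RNA switches with theophylline, tryptophan, arginine or FMN aptamers are transcribed on-chip within common flanks. They are titrated with a labelled K4 kissing-loop RNA reporter in RNA-MaP buffer (100 mM Tris pH 7.5, 80 mM KCl, 4 mM MgCl2), without ligand or with the indicated ligand. Median apparent KD per design.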

[1] = input ligand: theophylline 20 uM
[2] = input ligand: tryptophan 2.4 mM
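Further: bound reporter read as fluorescence of individual clusters on recovered sequencing chips by microscopy, with normalized cluster intensities fitted with a binding model.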

Sequence | apparent KD of K4 kissing-loop reporter (input ligand: FMN 200 uM) | apparent KD of K4 kissing-loop reporter (input ligand: arginine 13.2 mM) | apparent KD of K4 kissing-loop reporter (input ligand: none) | apparent KD of K4 kissing-loop reporter [1] | apparent KD of K4 kissing-loop reporter [2]
AUGUAUGAAUUAGGAUAUCGUGAGCCAUGCAUAUAUAUGAUAAAUGGAUAUGUCGUAGUGAUGUUACGAGAAGGAGUGUGGAGUA [KL-XFMN-B2] | 69.2 nM | 73.6 nM | 74.7 nM | 90 nM | 50.6 nM
AUGUGGAGCGACGUUUCGGGAUAUCGGGAAGGAGCGCUGAUAACGGCAGGUAGGUCGCCUGGUCCAGUGAUGUUGGGCAUGCAUU [Exclusion Arg A GF 24] | 150 nM | 135 nM | 270 nM | 185 nM | 155 nM
AUUAAUUUCAGAGGAUAUCGUUAUUUUUUUUAUUUUAUUCAUUUAUGCAGUGAUGUUGCUAUUAUUCGAGAAGGCUGAUUUAUAA [JR_ExcFMNB_Sub005] | 97.9 nM | 126 nM | 62.9 nM | 146 nM | 74.1 nM
AUUCGUUUUUGUGAUACCAGACAUGUGAGUGAUGUUUACAUAUAUAUUUAAUAUUUAGCUGUCCCUUGGCAGCACUGUUUAUUUA [JR_ExcTheophyB_Sub003] | 343 nM | 384 nM | 393 nM | 444 nM | 291 nM
AUUUAAUGUAUAGAUUAUAUACAUAAUUCAGAGGAUAUGCGAAGAAGCAGAAGGCUGGUUGCAGUGAUGUUGCUUUUAUAAUUUA [JR_SSFMNA_Sub009] | 32.8 nM | 152 nM | 85.9 nM | 171 nM | 59.9 nM
AUUUAAUGUAUAGAUUAUAUACAUUAUUCAGAGGAUAUGCUUUGAAGCAGAAGGCUGGAUGUAGUGAUGUUGCAAUUUUAAUUUA [JR_SSFMNA_Sub006] | 214 nM | 265 nM | 236 nM | 250 nM | 163 nM
AUUUAAUUAACUGAUACCAGACUUUUUGUUUUGAUAAUUACUAGUGAUGUUAGUGUUUCUGUCCCUUGGCAGCAGUAUCUACUUA [JR_ExcTheophyB_Sub017] | 121 nM | 177 nM | 122 nM | 209 nM | 106 nM
AUUUAGACGAGUGAUGUUCGUGAUAUUACAGAGGAUAUGCUUAAAAGCAGAAGGCUGUAUUUAUAUUUGUUAUGUAAUUUUAAAA [JR_ExcFMNA_Sub005] | 79.9 nM | 95.4 nM | 78 nM | 95.5 nM | 62.7 nM
AUUUUGGUUUAGAGUGAUGUUCCUUGUAUUCGAGGACCGGUACGGCCGCCACUCGAAUAGAAAAGAAAAGAAAUGUUUGAUGUUU [BDazzled - #6 SS Tryptophan A] | 551 nM | 193 nM | 537 nM | 274 nM | 393 nM
CACGAUGAAUUCUCUAGGAGUGAUGUUUUUCGAGGACCGGUACGGCCGCCACUCGGACGACGAGUGUGGUAGCGGGCUGAAGACU [zgullin] | 429 nM | 262 nM | 643 nM | 239 nM | 561 nM
CACUGGGCGAGUGAUGUUCGCUCACGUGAUACCAGUGCCAUCCAACACCCUUGGCAGCAUGCGGGCAGUGAUGUUGUCCAAAGAA [Exclusion Theophylline A GF9] | 204 nM | 187 nM | 207 nM | 208 nM | 184 nM
CAGAUCACAGAGUGAUGUUCUGUGUCCGAAGGAGCGCGCGAGAGCGCAGGUAGGUCGCGGAUACAGUUGACGUACCAUCUAGACA [Arg A Ex t3b] | 306 nM | 244 nM | 278 nM | 246 nM | 269 nM
CAGCCCAAAUGGCGAGAAGUGUUCCUUAGUCGAGGACCGGUACGGCCGCCACUCGCUCUAAACAUUAGGAGUGAUGUUCCAUUAG | 168 nM | 258 nM | 215 nM | 335 nM | 90.6 nM
CAUACGCAUGGAGGAUAUGAGAUUACUCAUGUCAUUUAAUAUUCUCAGUGAUGUUGAGAUUUAGGCUCAGAAGGCCAUGUGUAUG [Ex FMN B 17] | 355 nM | 514 nM | 630 nM | 534 nM | 525 nM
CAUACGCAUGGAGGAUAUGAGAUUUCUCAUAUUAUUUAAUAUUCUCAGUGAUGUUGAGAUAUAAACUCAGAAGGCCAUGUGUAUG [Ex FMN B 2] | 340 nM | 198 nM | 196 nM | 245 nM | 215 nM
CAUAGGAAACUAUGUAUCUCUCUUACUGAAGGAGCGCGUGAAAACGCAGGUAGGUCGCAGAAUUUAAAAGAGAGUGAUGUUCUCU [Ex Arginine A K4 8] | 358 nM | 253 nM | 332 nM | 247 nM | 301 nM
CAUCUGGACCAAGGAUAUGUGGGCAUAAUAAAAUUACCACCUUAUUUGCAGUAAGUGAUGUUUAACACAGAAGGUGGACAUAGAC [theeternabot_exclusion_KL_FMN_B_10] | 1170 nM | 725 nM | 1170 nM | 701 nM | 822 nM
CAUGAGUGAUGUUCGUGCGCUUGGUCGAAGCGAGGACCGGUACGGCCGCCACUCGCUAUGGCGGCAUCUACCAGUGAUGUUGGUG [Same State Tryptophan A GF 2] | 241 nM | 171 nM | 228 nM | 202 nM | 208 nM
CCAGGACGAUGAGGAGGAUGAAUUACUGAAGGAGCGCAUAUGGUUGCAGGUAGGUCGCGGUGAACAAGUAUAGUGAUGUUAUAUC [SSArgA.S] | 365 nM | 971 nM | 538 nM | 321 nM | 321 nM
CCAGGACGAUGAGGAUGAUGAAUUACUGAAGGAGCGCAUAUGGUUGCAGGUAGGUCGCGGUGAACAAGUAUAGUGAUGUUAUACC [SSArgA.U] | 327 nM | 282 nM | 340 nM | 515 nM | 348 nM
CCAUCGCUAUUCGAUACCAGCUCCUUAGUGAUGUUAAGGUUUUACCCUCUGUAGGAGGGAAGCCCUUGGCAGCGAGUAGUGAUGG [#03 K4 Theophylline B Same State] | 1270 nM | 802 nM | 948 nM | 623 nM | 1370 nM
CCAUCGCUAUUCGAUACCAGUCAUUAAAUCUUUGGUUUAAUAAAGGAGUGAUGUUCCCAAGACCCUUGGCAGCGAAUAGUGAUGG [Theophylline B K4 9] | 213 nM | 183 nM | 198 nM | 166 nM | 207 nM

Sequence | apparent KD of K4 kissing-loop reporter (input ligand: FMN 200 uM) | apparent KD of K4 kissing-loop reporter (input ligand: arginine 13.2 mM) | apparent KD of K4 kissing-loop reporter (input ligand: none) | apparent KD of K4 kissing-loop reporter [1] | apparent KD of K4 kissing-loop reporter [2]
CCAUCGCUGUUCGAUACCAGUCAUUUUUUAUUUUAUUUUUUUUUUGGAGUGAUGUUCCAAGACCCUUGGCAGCGGAUAGUGAUGG [whbob_SS_Theo_B_th80] | 116 nM | 143 nM | 114 nM | 145 nM | 111 nM
CCAUUCUUUUACGAUACCAGUUUAAUAUAUUUAUUCAAAACCCUUGCCGAGUGAUGUUCGGACCCUUGGCAGCGUUUGCGAGAGG [ttedstkmullin] | 455 nM | 376 nM | 465 nM | 434 nM | 356 nM
CCCAAGGGCCUACCGGUAUUAUUAACGGAUACCAGAGGCGAAAGCCUCCCUUGGCAGCCGGGUGUAGUGAUGUUACUCCGGUAGU | 83.4 nM | 64.7 nM | 70.2 nM | 63.2 nM | 78.1 nM
CCCUCACGAGUGAUGUUCGUAGGGUACAGUCAGGAUAUCAUGCGGUUGAGAAGGGACAGAGAGGGCGGCCACGGGUUGCUCCUCU [Lariusteza] | 183 nM | 259 nM | 386 nM | 345 nM | 305 nM
CCGAUACAUUAUUCUACGGCCGAGAGUGAUACCAGCCGUAUUUGUGGCCCUUGGCAGCGCAGAUGCAGUGAUGUUGCAUACUUGU [Same State Theophylline A GF 20] | 68.7 nM | 93.7 nM | 78.1 nM | 96.6 nM | 63.5 nM
CCGCCAUCAUCAGAUACCAGACUGAUGGCGGUAACCGCCAAGCGAGUGAUGUUCGCAUCAGUCCCUUGGCAGCUGAUGAAGACUG [Theo B SS t4] | 255 nM | 82.4 nM | 110 nM | 104 nM | 154 nM
CCGGCCCAGCCGGAUACCAGUGCGCCGCAGGGAACGGCGGGCCCAGAGUGAUGUUCGGGACACCCUUGGCAGCCGCCUGGGUCGU [#2 Same State - Theophylline B Attempt #28 (HarryS)] | 414 nM | 262 nM | 365 nM | 258 nM | 274 nM
CCGUGGAGUGAUGUUCCACGUUCUACGGAUACCAGCUUUGCCAAAGGCCCUUGGCAGCCGCACCUUGCAGUGAUGUUGUGAGGCU [Same State Theophylline A Gf7] | 329 nM | 268 nM | 305 nM | 302 nM | 274 nM
CCGUGGAGUGAUGUUCCACGUUCUACGGAUACCAGUUGUGCCAGCGGCCCUUGGCAGCCGCACCUUGCAGUGAUGUUGUGAGGCU [Same State Theophylline A Gf 6] | 238 nM | 210 nM | 225 nM | 229 nM | 198 nM
CCUAUCUCAUACGAUACCAGUCAAUGAUCUUUGAUCAAUGCCAUCACCGAGUGAUGUUCGGACCCUUGGCAGCGUAUGAGAUAGG [whbob_Ex_Theo_B_sa103] | 277 nM | 225 nM | 267 nM | 452 nM | 247 nM
CCUAUCUCGUACGAUACCAGUCAAUGAUCUUUGAUCAAUGCCAUCACCGAGUGAUGUUCGGACCCUUGGCAGCGUAUGAGAUGGG [whbob_Ex_Theo_B_sa105] | 272 nM | 207 nM | 251 nM | 386 nM | 242 nM
CCUAUCUCUUACGAUACCAGUCAAUGAUAUUUUAUCAAUGCCCUCACCGAGUGAUGUUCGGACCCUUGGCAGCGUAUGGGAUAGG [kjnjmullin] | 241 nM | 162 nM | 212 nM | 175 nM | 188 nM
CCUGCAGCUGUUACCGAGGGAUGCUACGGACGAGGACCGGUACGGCCGCCACUCGCCAGUGAUGUUGGUGAGGGAGGACGUUCCU [Georte] | 100 nM | 106 nM | 150 nM | 172 nM | 148 nM
CCUUCUCAUUUCCGUUAUCAUUGCCUUAGGAAGGAUAUCAUUAUUUUGAGAAGGUCCGUGGUCUAUUUUCCGAGUGAUGUUUGGU [theeternabot_exclusion_KL_FMN_A_45] | 273 nM | 226 nM | 311 nM | 277 nM | 248 nM
CCUUGGAUUAGCUGUACUUUUCUACGGGAUACCAGUGCGUAACACCACCCUUGGCAGCCCGAUUACCGGCAGUGAUGUUGCCUCU [theeternabot_sameState_KL_Theo_A_41] | 185 nM | 282 nM | 244 nM | 245 nM | 192 nM
CGACGCCGGUCGGCCGCCACUCACAGCAGCCAGUGAUGUUGGAUUGUAGCGGAGUGAUGUUUCGCGAGGACCGGGACUGCAGUCG [Same State Tryptophan B GF 12] | 167 nM | 131 nM | 129 nM | 130 nM | 143 nM
CGAGUGAUGUUCGUUUUUUUAUUUUUUUGACAGGAUAUGCGGAAACGCAGAAGGGUCACCUUUGAGUUAAAAGAAUUUAAAUUAU [Ex FMN A 23] | 278 nM | 208 nM | 254 nM | 213 nM | 193 nM
CGCAGUGAUGUUGCGAGUUUGAUCAGGGAAGGAGCGGCUCAGAAGCCAGGUAGGUCGCCCACGCAGUGAUGUUGUGUAUUCGGGU [Exclusion Arginine A GF 1] | 96.9 nM | 88.1 nM | 87.9 nM | 89.1 nM | 79.3 nM
CGCAGUGAUGUUGCUAUAUUUCUUGAUUAACGAGGACCGGUACGGCCGCCACUCGAUUUCUCUCUAAUCCACUAUGUUGUUUAGA [JR_SSTryptoA_Sub002] | 390 nM | 472 nM | 506 nM | 524 nM | 319 nM
CGCAGUGAUGUUGCUAUUAUUCUUGAUUAACGAGGACCGGUACGGCCGCCACUCGAUUUCUAUCUAAUCCAGUGUUUUGUUGAGU [JR_ExcTryptoA_Sub002] | 324 nM | 422 nM | 346 nM | 455 nM | 240 nM
CGCCACAACUGAAGGAGCGCGCCAGUGAUGUUGGACGGCUUCGUCAAGGAAACUGCACCGGUGCAGGUAGGUCGCAGUGCGUGGU [Eranarve] | 186 nM | 164 nM | 204 nM | 162 nM | 195 nM
